Measurements published in paper PMC10322944, “Cryo-EM and femtosecond spectroscopic studies provide mechanistic insight into the energy transfer in CpcL-phycobilisomes” (Nature Communications, 2023).

B1: CpcL (linker protein of CpcL-PBS) (natural protein, UniProt P74625 1-249, looked up)
chain: MTLPLIAYAPVSQNQRVTNYEVSGDEHARIFTTEGTLSPSAMDNLIAAAYRQVFNEQQMIQSNRQIALESQFKNQQITVRDFIRGLALSDSFRRRNFEVNNNYRFVQMCIQRLLGRDVYSEEEKIAWSIVIATKGLPGFINELLNSQEYLENFGYDTVPYQRRRILPQRISGELPFARMPRYGADHREKLEAIGYFRNQAPLTYRWEWQKQPYPAGVYLAGKVVLYVGGALVSLGIIAVALSAWGIIGL
notes: linker protein CpcL (also called CpcG2) of Synechocystis sp; PCC 6803; Pfam00427 domain resolved, transmembrane region not resolved in the map; native protein in the isolated CpcL-PBS; model started from the AlphaFold database entry; also called CpcG2; source: endogenous, Synechocystis 6803 ΔapcAB mutant strain; purified as part of CpcL-PBS (sucrose gradient)
B2: CpcC2 (rod linker protein) (natural protein)
chain: not shown
notes: phycocyanin-associated rod linker CpcC2 of Synechocystis sp; PCC 6803; Pfam00427 domain at the N-terminus, Pfam01383 domain at the C-terminus; native protein in the isolated CpcL-PBS; model started from the AlphaFold database entry; source: endogenous, Synechocystis 6803 ΔapcAB mutant strain; purified as part of CpcL-PBS (sucrose gradient)
B3: phycocyanin (PC) αβ monomer (CpcA-CpcB heterodimer) (complex)
chain 1: not shown
chain 2: MFDVFTRVVSQADARGEYLSGSQLDALSATVAEGNKRIDSVNRITGNASAIVSNAARALFAEQPQLIQPGGNAYTSRRMAACLRDMEIILRYVTYATFTGDASVLEDRCLNGLRETYVALGVPGASVAAGVQKMKEAALDIVNDPNGITRGDCSAIVAEIAGYFDRAAAAVA
modifications: phycocyanobilin (PCB) covalently attached (bilin α84) | phycocyanobilin (PCB) covalently attached (bilins β82 and β152; printed β155 in p-0013)
notes: C-phycocyanin alpha subunit CpcA of Synechocystis sp; PCC 6803; as m1; C-phycocyanin beta subunit CpcB of Synechocystis sp; as m2; made for the self-association of the αβ monomer into trimers and hexamers; 18 αβ monomers stand in the three-layered CpcL-PBS; source: endogenous, Synechocystis 6803 ΔapcAB mutant strain; purified as part of CpcL-PBS (sucrose gradient)
B4: CpcB (phycocyanin β subunit) (natural protein, UniProt Q54714 1-172, looked up)
chain: B3 chain 2
modifications: phycocyanobilin (PCB) covalently attached (bilins β82 and β152; printed β155 in p-0013)
notes: C-phycocyanin beta subunit CpcB of Synechocystis sp; PCC 6803; native protein in the isolated CpcL-PBS; 18 copies in the three-layered CpcL-PBS; also called β-PC; PC β subunit; source: endogenous, Synechocystis 6803 ΔapcAB mutant strain; purified as part of CpcL-PBS (sucrose gradient)
B5: CpcC1 (rod linker protein) (natural protein)
chain: not shown
notes: phycocyanin-associated rod linker CpcC1 of Synechocystis sp; PCC 6803; Pfam00427 domain at the N-terminus, Pfam01383 domain at the C-terminus; native protein in the isolated CpcL-PBS; model started from the AlphaFold database entry; source: endogenous, Synechocystis 6803 ΔapcAB mutant strain; purified as part of CpcL-PBS (sucrose gradient)

How the values were obtained:
Experiment in all cases: cryo-EM structure; CpcL-PBS isolated from the ΔapcAB strain on a sucrose gradient (0.75 M K/Na-PO4 pH 7.0, 0.0125% glutaraldehyde, 0.03% β-DDM, 22 °C); phosphate diluted on the grid with 50 mM Tris pH 7.0, 0.01% β-DDM; map at 2.64 Å
[1] = target: B5; settings: both partners purified
[2] = target: T1, three-domain ferredoxin-NADP+ oxidoreductase (FNR3D) (Synechocystis sp. PCC 6803 (endogenous …, UniProt Q55318 1-413)); settings: both partners purified
T1 construct: ferredoxin-NADP+ oxidoreductase (PetH) of Synechocystis sp; only the CpcD (Pfam01383) domain is resolved in the map; model started from the AlphaFold database entry of PetH; also called PetH; source: endogenous, Synechocystis 6803 ΔapcAB mutant strain; purified as part of CpcL-PBS (sucrose gradient)

[3] = target: the molecule itself
[4] = target: B1; settings: both partners purified

T1 sequence (Q55318 whole entry): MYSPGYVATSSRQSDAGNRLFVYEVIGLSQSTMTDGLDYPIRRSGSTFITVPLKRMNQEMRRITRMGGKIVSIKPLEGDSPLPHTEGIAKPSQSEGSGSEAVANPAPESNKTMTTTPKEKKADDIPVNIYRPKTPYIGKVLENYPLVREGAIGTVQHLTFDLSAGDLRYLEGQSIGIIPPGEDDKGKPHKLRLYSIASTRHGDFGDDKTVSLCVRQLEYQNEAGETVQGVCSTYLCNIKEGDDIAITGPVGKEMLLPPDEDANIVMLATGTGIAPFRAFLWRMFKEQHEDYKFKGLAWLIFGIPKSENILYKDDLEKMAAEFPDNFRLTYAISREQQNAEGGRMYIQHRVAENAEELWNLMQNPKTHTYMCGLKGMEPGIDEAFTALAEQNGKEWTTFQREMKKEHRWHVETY

Binder: B1
binding result [1]: binds

Binder: B2
binding result [2]: binds

Binder: B3
stoichiometry N [3]: 6

Binder: B4
binding result [4]: binds

Binder: B5
stoichiometry N [4]: 1
